# Measured values from PMC3540129.
# Assays:
# [1] = target: Kv7.4 (KCNQ4) B segment (Q4B, residues 522-557), tag removed (human) (UniProt P56696); assay: SEC-MALS
# [2] = target: Kv7.5 (KCNQ5) B-D construct (Q5BD), tag removed (human) (UniProt Q9NR82); assay: SEC
# Sequence of UniProt P56696 (P56696 522-557): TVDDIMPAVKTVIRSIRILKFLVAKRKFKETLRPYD
stoichiometry N [1],stoichiometry N [2],Substance
1,,"Calmodulin (CaM), full-length native (from UniProt P0DP23 1-149) (natural protein)"
,4,"Kv7.5 (KCNQ5) B-D construct (Q5BD), tag removed (from UniProt Q9NR82 1-932) (domain or fragment)"
